Assay results published in patent publication US7939490.

Molecular target: Fn14-Fc fusion protein (murine Fn14 extracellular domain fused to the hinge and Fc of mouse IgG1, with myc and His tags) (murine)
Assay: ELISA, plate coated with Fn14-Fc, serial dilutions of FLAG-tagged TWEAK

Sequence of Fn14-Fc fusion protein (murine Fn14 extracellular domain fused to the hinge and Fc of mouse IgG1, with myc and His tags) (murine) (chain, as listed by the source): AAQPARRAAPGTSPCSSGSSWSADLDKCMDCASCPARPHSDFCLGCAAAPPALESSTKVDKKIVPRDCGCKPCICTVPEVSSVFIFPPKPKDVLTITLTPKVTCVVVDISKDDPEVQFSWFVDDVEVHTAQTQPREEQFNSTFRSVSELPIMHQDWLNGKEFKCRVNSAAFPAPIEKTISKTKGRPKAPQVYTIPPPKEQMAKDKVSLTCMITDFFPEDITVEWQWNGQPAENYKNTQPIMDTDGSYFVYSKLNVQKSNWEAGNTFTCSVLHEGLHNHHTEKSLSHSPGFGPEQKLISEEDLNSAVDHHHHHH

Kd: 1.1 nM
Substance: FLAG epitope-tagged TWEAK (ligand)
